Assay results published in patent US20040146873.
Where a chain is given by its changes, count along the chain named.

How the values were obtained:
[1] = tested on: T1, hPER2 fragment, amino acids 474 to 815, S662D, 6-myc-tagged
T1 sequence: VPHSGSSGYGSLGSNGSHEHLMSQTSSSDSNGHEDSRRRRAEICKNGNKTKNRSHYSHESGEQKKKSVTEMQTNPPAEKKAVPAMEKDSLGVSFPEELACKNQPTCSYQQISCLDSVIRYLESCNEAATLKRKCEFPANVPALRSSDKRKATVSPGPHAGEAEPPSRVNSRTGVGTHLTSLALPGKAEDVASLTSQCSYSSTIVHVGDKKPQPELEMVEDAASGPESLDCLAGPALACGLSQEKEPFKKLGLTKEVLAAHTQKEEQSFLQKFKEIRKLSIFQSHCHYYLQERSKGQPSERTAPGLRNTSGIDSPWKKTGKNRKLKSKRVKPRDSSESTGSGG

[2] = target: mPER2 fragment, amino acids 472 to 804, wild-type, 6-myc-tagged (UniProt O54943)
[3] = tested on: T2, hPER2 fragment, amino acids 474 to 815, S662E, 6-myc-tagged
T2 sequence: T1 sequence with D189E

[4] = tested on: T3, hPER2 fragment, amino acids 474 to 815, wild-type (662S), 6-myc-tagged
T3 sequence: T1 sequence with D189S

[5] = tested on: T4, hPER2 fragment, amino acids 474 to 815, mutant S662G (662G), 6-myc-tagged
T4 sequence: T1 sequence with D189G

[6] = tested on: hPER2 peptides in the region of serine 662 with a negative charge at position 662 (covalently linked phosphate or aspartate)
[7] = target: mPER2 fragment, amino acids 472 to 804, serine 659 substituted by glycine, 6-myc-tagged (UniProt O54943)

casein kinase Iε (CKIε), sequence (P49674 whole entry): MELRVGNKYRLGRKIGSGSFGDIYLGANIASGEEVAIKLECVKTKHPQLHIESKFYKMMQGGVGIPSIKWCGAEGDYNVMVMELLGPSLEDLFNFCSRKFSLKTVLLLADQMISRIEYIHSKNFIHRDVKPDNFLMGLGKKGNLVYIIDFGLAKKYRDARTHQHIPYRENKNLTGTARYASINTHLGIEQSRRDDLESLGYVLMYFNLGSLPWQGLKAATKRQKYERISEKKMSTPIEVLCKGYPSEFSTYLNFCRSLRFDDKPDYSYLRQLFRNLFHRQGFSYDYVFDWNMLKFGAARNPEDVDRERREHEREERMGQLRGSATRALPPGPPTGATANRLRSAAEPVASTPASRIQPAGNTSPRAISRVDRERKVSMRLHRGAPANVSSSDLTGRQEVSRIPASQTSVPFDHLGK

casein kinase Iε (CKIε)
phosphorylation (mobility shift) [1]: Phosphorylation was restored in both the S662D and S662E mutants, with a higher phosphorylation rate observed with the S662D mutant
electrophoretic mobility shift (phosphorylation) at low CKIε [2]: A similar result was obtained with wild-type and mutant mPER2 fragments (data not shown)
phosphorylation (mobility shift) [3]: Phosphorylation was restored in both the S662D and S662E mutants, with a higher phosphorylation rate observed with the S662D mutant
electrophoretic mobility shift (phosphorylation) at higher CKIε, 6.5 ng/µl [4]: mobility shifts were observed for both the wild type and mutant hPER2 fragments
electrophoretic mobility shift (phosphorylation) at low CKIε, 0.25 ng/µl [4]: an electrophoretic mobility shift was observed with the wild-type (662S) but not with the mutant (662G) fragment
electrophoretic mobility shift (phosphorylation) at higher CKIε, 6.5 ng/µl [5]: mobility shifts were observed for both the wild type and mutant hPER2 fragments
electrophoretic mobility shift (phosphorylation) at low CKIε, 0.25 ng/µl [5]: an electrophoretic mobility shift was observed with the wild-type (662S) but not with the mutant (662G) fragment
phosphorylation stoichiometry (biochemical phosphorylation assay and mass spectrometry) [6]: phosphorylation of an additional four moles per mole of substrate when there is a negative charge at serine 662
electrophoretic mobility shift (phosphorylation) at low CKIε [7]: A similar result was obtained with wild-type and mutant mPER2 fragments (data not shown)
